As usually defined, the pKd is −log10 of the Kd, conventionally taken in molar units. Read a low pKd as a large Kd.

The text below walks through data of publication PMC4826270.

pKd: −log10 of the molar value.

In this experiment the target is SecA* (SecA795C labelled with 5-iodoacetamidofluorescein) (UniProt P10408). Nature of the experiment: other fluorescence titration; SecYEG variant in detergent titrated into 10 nM fluorescein-labelled SecA*; quenching read at 522 nm; 20 mM Tris pH 8, 130 mM NaCl, 10% glycerol, 0.02% DDM, 2 mM MgCl2, 1 mM AMP-PNP; fitted to a tight binding equation.

The substance “SecYEDPEG (SecY_(R357E/P358D/G359P)EG) (from UniProt P0AGA2 1-443; P0AG96 1-127; P0AG99 1-110) (complex)” gave a pKd of 6.87.
The value for “SecY_(prlA4)EG (SecY_(F286Y/I408N)EG) (from UniProt P0AGA2 1-443; P0AG96 1-127; P0AG99 1-110) (complex)” was 7.44; that for “SecY_(prlA4-EDP)EG (SecY_(F286Y,I408N,R357E,P358D,G359P)EG) (from UniProt P0AGA2 1-443; P0AG96 1-127; P0AG99 1-110) (complex)” was 7.38.
